Our source for the stoichiometry N and stoichiometry N (CCAN per Cenp-A^Nuc) values is PMC6859074.

Assay [1] concerns the target 14 subunit-CCAN complex (constitutive centromere associated network), S. cerevisiae (S. cerevisiae) (UniProt P35201). The experiment in a line: AUC.
Assay [2] addresses S. cerevisiae Cenp-A nucleosome wrapped with the 147 bp Widom 601 sequence (S. cerevisiae) (UniProt P36012). The experiment in a line: AUC.
In assay [3] the target is 14 subunit-CCAN complex (constitutive centromere associated network), S. cerevisiae (S. cerevisiae) (UniProt P35201). The experiment in a line: SEC-MALS.
Assay [4] concerns the target S. cerevisiae Cenp-A nucleosome wrapped with the 147 bp Widom 601 sequence (S. cerevisiae) (UniProt P36012). The assay is described as follows: SEC-MALS + AUC.
The target of assay [5] is 14 subunit-CCAN complex (constitutive centromere associated network), S. cerevisiae (S. cerevisiae) (UniProt P35201). The assay is described as follows: cryo-EM structure.

With “14 subunit-CCAN complex (constitutive centromere associated network), S. cerevisiae (from UniProt P35201;Q12262;Q12748;P47167;P43618;Q2V2P8;P38265;P38907;Q06675;Q02732;P53298;P38313;Q12493;Q06162)”, the stoichiometry N in assay [1], in assay [3] and in assay [5] was 2 each time. Also, the stoichiometry N (CCAN per Cenp-A^Nuc) in assay [2] was determined as 1; in assay [4], 2.
